Laboratory results taken from patent US20200317817A1 (XOMA US, published 2020).

How the values were obtained:
[1] = biological target: T1, recombinant N-terminal extracellular domain of the human PTH1R receptor (human, UniProt Q03431 27-188, limits assumed); assay: SPR, IgG captured, ECD injected
T1 construct: domain: N-terminal extracellular domain; Bought reagent; also called N-ECD PTH1R; PTH1R N-terminal ECD
T1 sequence (looked up): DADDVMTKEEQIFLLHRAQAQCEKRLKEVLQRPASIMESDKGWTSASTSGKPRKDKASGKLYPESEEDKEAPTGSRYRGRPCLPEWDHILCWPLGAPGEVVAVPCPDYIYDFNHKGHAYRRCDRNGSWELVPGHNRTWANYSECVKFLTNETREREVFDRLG
Procedure: An anti-human IgG-Fc CMS sensor chip (GE Healthcare) was prepared using standard amine coupling as described by the manufacturer's protocol for the capture Ab on a BIACORE 4000 system (GE Healthcare). Briefly, the chip surface was activated with a 10 minute injection at 10 μL/minute of a freshly mixed 1:1 solution of 0.1 M N-Hydroxysuccinimide (NHS) and 0.4 M 1-Ethyl-3-(3-dimethylaminopropyl) carbodiimide hydrochloride (EDC). Following the activation injection, 15 ug/mL anti-human IgG-Fc antibody in acetate pH 4.5 was injected at 10 μL/minute for 10 minutes to achieve a high density capture surface. 7 minutes of 1M Ethanolamine hydrochloride-NaOH pH 8.5 was injected to block the surface. The NHS, EDC, and Ethanolamine used were from the BIACORE Amine Coupling Kit.
Kinetic Analysis was performed using HBS-EP+(Teknova) with 2.5 mg/mL BSA (Sigma Aldrich, St. Louis Mo.). Antibodies were diluted to 0.5 μg/mL and captured to achieve a surface density of 100 to 200 RU. […] Injections were performed at 30 μL/minute for 240 seconds with a 360 second dissociation time. Regeneration was then performed with one 60 second injection 3M MgCl.
The data were analyzed using BIACORE 4000 Evaluation Software and was double referenced by subtracting both the blank flow cell data and the averaged bracketing blank injections. The data was fit by simultaneously fitting the an off-rate (kd) and on-rate (kₐ), and calculating the KD as KD=kd/kₐ.

[2] = biological target: T2, mouse PTH1R overexpressed on CHO cells (mouse, UniProt P41593 27-591); assay: cell-based or functional assay
T2 sequence (looked up): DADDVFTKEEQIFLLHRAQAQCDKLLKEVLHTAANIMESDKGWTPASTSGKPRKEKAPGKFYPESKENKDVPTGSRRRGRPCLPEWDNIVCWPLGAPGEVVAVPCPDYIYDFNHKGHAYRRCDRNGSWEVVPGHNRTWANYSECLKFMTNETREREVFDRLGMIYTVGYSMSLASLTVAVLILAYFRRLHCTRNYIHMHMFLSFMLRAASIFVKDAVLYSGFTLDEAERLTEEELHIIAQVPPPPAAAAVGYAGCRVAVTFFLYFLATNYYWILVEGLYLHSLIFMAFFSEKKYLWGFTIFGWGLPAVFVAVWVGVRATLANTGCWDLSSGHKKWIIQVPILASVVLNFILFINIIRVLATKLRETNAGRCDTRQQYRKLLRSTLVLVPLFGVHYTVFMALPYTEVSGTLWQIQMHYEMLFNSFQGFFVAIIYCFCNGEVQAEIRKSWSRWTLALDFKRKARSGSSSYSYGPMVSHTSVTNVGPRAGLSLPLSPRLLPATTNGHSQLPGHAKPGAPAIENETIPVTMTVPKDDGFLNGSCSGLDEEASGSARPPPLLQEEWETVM

[3] = biological target: T3, human PTH1R overexpressed on CHO cells (human, UniProt Q03431 27-593); assay: cell-based or functional assay
T3 sequence (looked up): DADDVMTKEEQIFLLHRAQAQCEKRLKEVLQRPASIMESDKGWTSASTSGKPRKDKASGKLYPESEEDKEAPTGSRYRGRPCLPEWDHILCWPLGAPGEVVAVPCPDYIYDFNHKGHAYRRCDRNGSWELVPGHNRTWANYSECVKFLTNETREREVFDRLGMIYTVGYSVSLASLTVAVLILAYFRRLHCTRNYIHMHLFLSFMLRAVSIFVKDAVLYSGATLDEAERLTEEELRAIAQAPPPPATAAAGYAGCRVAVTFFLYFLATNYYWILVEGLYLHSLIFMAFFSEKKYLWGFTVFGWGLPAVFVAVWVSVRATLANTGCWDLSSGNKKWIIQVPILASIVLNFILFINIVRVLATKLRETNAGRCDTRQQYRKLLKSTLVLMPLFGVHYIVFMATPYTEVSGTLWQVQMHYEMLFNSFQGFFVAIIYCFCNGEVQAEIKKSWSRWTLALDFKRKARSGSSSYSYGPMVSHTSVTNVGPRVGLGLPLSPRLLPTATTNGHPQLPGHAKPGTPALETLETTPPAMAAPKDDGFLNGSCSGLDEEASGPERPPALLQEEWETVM

[4] = biological target: T4, human PTH1R on Saos-2 cells (endogenous) (human, UniProt Q03431 27-593); assay: cell-based or functional assay
T4 sequence (looked up): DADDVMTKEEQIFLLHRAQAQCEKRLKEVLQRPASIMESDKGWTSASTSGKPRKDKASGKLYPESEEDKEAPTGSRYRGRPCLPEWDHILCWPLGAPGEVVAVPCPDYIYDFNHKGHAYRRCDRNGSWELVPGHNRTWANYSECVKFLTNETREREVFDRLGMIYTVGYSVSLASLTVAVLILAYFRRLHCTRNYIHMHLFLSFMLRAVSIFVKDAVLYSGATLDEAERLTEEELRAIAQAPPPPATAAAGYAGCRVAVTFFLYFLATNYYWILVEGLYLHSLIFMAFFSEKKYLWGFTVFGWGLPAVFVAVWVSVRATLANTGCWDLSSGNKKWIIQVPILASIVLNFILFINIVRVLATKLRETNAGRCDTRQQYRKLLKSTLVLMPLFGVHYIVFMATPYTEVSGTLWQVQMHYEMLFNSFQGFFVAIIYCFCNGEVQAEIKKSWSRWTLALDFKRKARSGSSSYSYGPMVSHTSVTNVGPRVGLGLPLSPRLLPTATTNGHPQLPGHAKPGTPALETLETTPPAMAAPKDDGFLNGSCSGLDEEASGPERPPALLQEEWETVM

[5] = biological target: T5, rat PTH1R on UMR106 cells (rat, UniProt P25961 27-591); assay: cell-based or functional assay
T5 sequence (looked up): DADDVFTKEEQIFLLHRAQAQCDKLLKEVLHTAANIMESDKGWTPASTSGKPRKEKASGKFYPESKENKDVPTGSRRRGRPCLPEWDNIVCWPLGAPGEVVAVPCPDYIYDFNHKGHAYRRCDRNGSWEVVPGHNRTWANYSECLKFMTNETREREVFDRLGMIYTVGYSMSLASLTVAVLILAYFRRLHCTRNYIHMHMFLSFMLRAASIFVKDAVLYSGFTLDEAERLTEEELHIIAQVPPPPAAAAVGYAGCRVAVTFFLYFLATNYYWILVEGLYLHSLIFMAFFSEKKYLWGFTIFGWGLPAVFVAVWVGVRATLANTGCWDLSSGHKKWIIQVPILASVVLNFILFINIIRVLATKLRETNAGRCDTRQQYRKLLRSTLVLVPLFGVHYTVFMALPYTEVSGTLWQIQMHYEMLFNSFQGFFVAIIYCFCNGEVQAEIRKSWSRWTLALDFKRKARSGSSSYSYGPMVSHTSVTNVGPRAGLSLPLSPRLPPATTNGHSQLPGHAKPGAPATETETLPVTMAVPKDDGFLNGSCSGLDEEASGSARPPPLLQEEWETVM

[6] = biological target: T4, human PTH1R on Saos-2 cells (endogenous); assay: cell-based or functional assay; remark: listed apart in the source

B1: XPA.85.326 (antibody, V domains shown)
VH: QMQLVQSGAEVKKPGSSVKVSCKASGGTFSSYAISWVRQAPGQGLEWMGGIIPIFGTANYAQKFQGRVTITADESTSTAYMELSSLRSEDTAVYYCARGYVVARLWGQGTLVTVSS
VL: DIVMTQTPLSLSVTPGQPASISCKSSQSLLHIDGLTYLYWYLQKPGQPPQLLIYEVSHRFSGVSDKFSGSGSGTDFTLTISRVEAEDVGVYYCMQSLHLPITFGQGTRLEIK
notes: Light-chain-shuffled variant of XPA.85.012
[1]
  Kd: 0.19 nM
  koff: 7.3e-05 s⁻¹
  kon: 380000 M⁻¹ s⁻¹

B2: XPA.85.345 (antibody, V domains shown)
VH: QMQLVQSGAEVKKPGSSVKVSCKASGGTFSSYAISWVRQAPGQGLEWMGGIIPIFGTANYAQKFQGRVTITADESTSTAYMELSSLRSEDTAVYYCARGYVVARLWGQGTLVTVSS
VL: ETTLTQSPAFMSASVGDRVTITCQASQDINNFLNWYQQKPGKAPKFLIYDASNLEKGVPSRFSGRGSGTEFTLTISSLQPEDIATYYCQQYRDFPLTFGQGTRLEIK
notes: as for B1
[2]
  IC50, inhibition of PTHrP(1-34)-induced cAMP accumulation: 2.53 nM
[3]
  IC50, inhibition of PTH(1-34)-induced cAMP accumulation: 14.2 nM
  IC50, inhibition of PTHrP(1-34)-induced cAMP accumulation: 12.1 nM
[1]
  Kd: 0.56 nM
  koff: 0.0013 s⁻¹
  kon: 2.3e+06 M⁻¹ s⁻¹

B3: XPA.85.347 (antibody, V domains shown)
VH: QMQLVQSGAEVKKPGSSVKVSCKASGGTFSSYAISWVRQAPGQGLEWMGGIIPIFGTANYAQKFQGRVTITADESTSTAYMELSSLRSEDTAVYYCARGYVVARLWGQGTLVTVSS
VL: DIVMTQTPLSLSVTPGQPASISCKSSQSLFHDHGRTHLSWYLQKPGQPPQLLIFEASNRFSGVPDRFSGSGSGTDFTLKISRVEAEDVGVYYCMQGIHLPPAFGGGTKLEIK
notes: as for B1
[2]
  IC50, inhibition of PTHrP(1-34)-induced cAMP accumulation: 2.9 nM
[1]
  Kd: 0.87 nM
  koff: 0.00077 s⁻¹
  kon: 880000 M⁻¹ s⁻¹

B4: XPA.85.288 (antibody, V domains shown)
VH: QMQLVQSGAEVKKPGSSVKVSCKASGGTFSSYAISWVRQAPGQGLEWMGGIIPIFGTANYAQKFQGRVTITADESTSTAYMELSSLRSEDTAVYYCARGYVVARLWGQGTLVTVSS
VL: DVVMTQTPLSLSVTPGQPASISCKSSQSLLHIDGKTYLYWYLQKSGQSPQLLIYEVSNRFSGVPDTFSGSGSGTDFTLKISRVEAEDVGVYYCMQSLHFPITFGQGTRLEIK
notes: also called Ab288
[4]
  fold shift of the PTH (1-34) dose response, M-CSF secretion by Saos-2 cells: > 10 fold
[1]
  Kd: 0.18 nM
  koff: 0.00014 s⁻¹
  kon: 780000 M⁻¹ s⁻¹
[5]
  % inhibition of cAMP accumulation at 1 µM PTH(1-34), 267 nM IgG: 73%
  % inhibition of cAMP accumulation at 1 µM PTHrP(1-34), 267 nM IgG: 45%
[6]
  % inhibition of cAMP accumulation at 1 µM PTH(1-34), 267 nM IgG: 79%
  % inhibition of cAMP accumulation at 1 µM PTHrP(1-34), 267 nM IgG: 79%

B5: XPA.85.346 (antibody, V domains shown)
VH: QMQLVQSGAEVKKPGSSVKVSCKASGGTFSSYAISWVRQAPGQGLEWMGGIIPIFGTANYAQKFQGRVTITADESTSTAYMELSSLRSEDTAVYYCARGYVVARLWGQGTLVTVSS
VL: DIVMTQTPLSLSVTPGQPASITCKSSQSLLHIDGKTYLYWFLQKPGQPPQLLIYEVSNRFSGVPDRFSGSGSGTDFTLKISRVEAEDVGLYYCMQSLHLPITFGQGTRLEIK
notes: as for B1
[4]
  fold shift of the PTH (1-34) dose response, M-CSF secretion by Saos-2 cells: > 10 fold
[2]
  IC50, inhibition of PTHrP(1-34)-induced cAMP accumulation: 3.57 nM
[3]
  IC50, inhibition of PTH(1-34)-induced cAMP accumulation (curve does not reach a plateau): 29.9 nM
  IC50, inhibition of PTHrP(1-34)-induced cAMP accumulation: 14.6 nM
[1]
  Kd: 0.31 nM
  koff: 0.00014 s⁻¹
  kon: 450000 M⁻¹ s⁻¹
[5]
  % inhibition of cAMP accumulation at 1 µM PTH(1-34), 267 nM IgG: 40%
  % inhibition of cAMP accumulation at 1 µM PTHrP(1-34), 267 nM IgG: 31%
[6]
  % inhibition of cAMP accumulation at 1 µM PTH(1-34), 267 nM IgG: 72%
  % inhibition of cAMP accumulation at 1 µM PTHrP(1-34), 267 nM IgG: 75%

B6: XPA.85.327 (antibody, V domains shown)
VH: QMQLVQSGAEVKKPGSSVKVSCKASGGTFSSYAISWVRQAPGQGLEWMGGIIPIFGTANYAQKFQGRVTITADESTSTAYMELSSLRSEDTAVYYCARGYVVARLWGQGTLVTVSS
VL: DIVMTQTPLSLSVTPGQPASITCKSSQSLLHIDGNTYLYWYLQRPGQPPQLLIYEISNRFSGVPDRFSGSGSGTDFTLKISRVEAEDVGVYYCMQSLHFPITFGQGTRLEIK
notes: Light-chain-shuffled variant of XPA.85.012; also called XPA.327
[4]
  fold shift of the PTH (1-34) dose response, M-CSF secretion by Saos-2 cells: > 10 fold
[1]
  Kd: 0.15 nM
  koff: 0.00011 s⁻¹
  kon: 740000 M⁻¹ s⁻¹

B7: XPA.85.342 (antibody, V domains shown)
VH: QMQLVQSGAEVKKPGSSVKVSCKASGGTFSSYAISWVRQAPGQGLEWMGGIIPIFGTANYAQKFQGRVTITADESTSTAYMELSSLRSEDTAVYYCARGYVVARLWGQGTLVTVSS
VL: ETTLTQSPTFMSASVGDRVTITCQASQDINNFLNWYQQKPGKAPKFLIYDASNLEKGVPSRFSGRGSGTEFTLTISSLQPEDIATYYCQQYRDFPLTFGQGTRLEIK
notes: as for B1
[1]
  Kd: 0.52 nM
  koff: 0.0012 s⁻¹
  kon: 2.3e+06 M⁻¹ s⁻¹
[5]
  % inhibition of cAMP accumulation at 1 µM PTH(1-34), 267 nM IgG: 6%
  % inhibition of cAMP accumulation at 1 µM PTHrP(1-34), 267 nM IgG: 0%
[6]
  % inhibition of cAMP accumulation at 1 µM PTH(1-34), 267 nM IgG: 0%
  % inhibition of cAMP accumulation at 1 µM PTHrP(1-34), 267 nM IgG: 17%
